These results are taken from article PMC9445180, “Allosteric inhibition of HTRA1 activity by a conformational lock mechanism to treat age-related macular degeneration” (Nature Communications, 2022).

Where a chain is given by its changes, count along the chain named. Names and notes keep the numbering of the source.

Data set [1] concerns the molecule itself. Description: SEC; HTRA proteins and their LoopA deletion mutants alone; Superdex 200 Increase 3.2/300; 200 mM NaCl, 20 mM HEPES pH 7.5, 0.25% CHAPS; size against gel filtration standard.
Data set [2] addresses T1, HTRA2^PD/PDZ (HTRA2 protease/PDZ domain, A134-E458) (human, UniProt O43464).
T1 construct: human HTRA2 protease and PDZ domains, A134-E458; also called wildtype HTRA2; source: E. coli, purified (Ni-NTA, SEC); not shown: His6, N-terminal, kept
As to the kind of experiment: SPR; His6-tagged HTRA proteins (about 200 RU) captured with the His-capture kit on a CM5 chip, Fab15H6.v4 as analyte, single-cycle kinetics, three-fold dilutions from 1 nM or 1 μM; absence of binding verified with 3 μM Fab; Biacore S200, 25 °C, HBS-EP; 1:1 Langmuir model. As to conditions: both partners purified.

The target of data set [3] is T2, HTRA1^PD (human HTRA1 protease domain, D161-K379) (human, UniProt Q92743).
T2 construct: human HTRA1 protease domain, D161-K379, 24 kDa; His6 tag is TEV or thrombin cleavable; captured by it in SPR; also called wildtype HTRA1^PD; active HTRA1^PD; source: E. coli, purified (Ni-NTA, SEC); not shown: His6, N-terminal, kept
Described as above. The conditions noted are these: both partners purified.

Data set [4] concerns the target T3, HTRA3^PD/PDZ (HTRA3 protease/PDZ domain, L130-M453) (Homo sapiens, UniProt P83110).
T3 construct: human HTRA3 protease and PDZ domains, L130-M453; also called wildtype HTRA3; source: E. coli, purified (Ni-NTA, SEC); not shown: His6, N-terminal, kept
Described as above. As to conditions: both partners purified.

The target in data set [5] is T4, HTRA2 LoopA wildtype peptide (Homo sapiens).
T4 construct: LoopA of human HTRA2, residues 168-179; also called LoopA peptide of HTRA2; source: synthetic peptide (Abclonal)
T4 chain: DRHPFLGREVPI
Description: SPR; Fab15H6.v4 (1000 RU) immobilised on a CM5 chip by amine coupling, synthetic LoopA peptides as analytes, single-cycle kinetics, three-fold dilutions from 10 nM (HTRA1 peptides) or 3 μM (HTRA2, HTRA3, HTRA4 peptides); 25 °C, HBS-EP. As to conditions: both partners purified.

Data set [6] concerns the target T5, HTRA1 LoopA wildtype peptide (Homo sapiens).
T5 construct: LoopA of human HTRA1, residues 190-201; also called HTRA1-LoopA peptide; LoopA peptide; source: synthetic peptide (Abclonal for SPR; NeoBiolab for the crystal)
T5 chain: RKLPFSKREVPV
Described as above. As to conditions: both partners purified.

Data set [7] concerns the target T6, HTRA3 LoopA wildtype peptide (Homo sapiens).
T6 construct: LoopA of human HTRA3, residues 161-172; also called LoopA peptide of HTRA3; source: synthetic peptide (Abclonal)
T6 chain: LRHPLFGRNVPL
Described as above. As to conditions: both partners purified.

Data set [8] has as its target T7, HTRA4 LoopA wildtype peptide (Homo sapiens).
T7 construct: LoopA of human HTRA4, residues 188-199; also called LoopA peptide of HTRA4; source: synthetic peptide (Abclonal)
T7 chain: GRLLHGSRLVPV
The description is as above. The conditions noted are these: both partners purified.

Data set [9] deals with T8, HTRA1^PD/SA (catalytically inactive S328A mutant of the HTRA1 protease domain) (human, UniProt Q92743, S328A).
T8 construct: human HTRA1 protease domain, D161-K379, with S328A; source: E. coli, purified (Ni-NTA, SEC)
As to the kind of experiment: SEC; HTRA1 proteins mixed with Fab15H6.v4 (1:2 molar ratio, 30 min on ice); Superdex 200 Increase 3.2/300; 200 mM NaCl, 20 mM HEPES pH 7.5, 0.25% CHAPS; size against protein standards. As to conditions: both partners purified.

Data set [10] addresses T9, HTRA1^FL/SA (catalytically inactive S328A mutant of full-length HTRA1) (human, UniProt Q92743, S328A).
T9 construct: human HTRA1, Q23-P480, with S328A; source: Trichoplusia ni cells, purified from the medium (Ni-NTA, SEC)
The data set is described as above. The conditions noted are these: both partners purified.

Data set [11] deals with T2, HTRA1^PD (human HTRA1 protease domain, …). Described as above. As to conditions: both partners purified.
For data set [12] the target is unchanged. Description: SPR; wildtype His6-tagged HTRA1^PD (about 200 RU) captured with the His-capture kit on a CM5 chip; scFv15H6.v4, Fab15H6.v4 and its mutants as analytes, single-cycle kinetics, three-fold dilutions from 10 nM or 1 μM; absence of binding confirmed up to 3 μM; 25 °C, HBS-EP. As to conditions: both partners purified.

T3 sequence (P83110 130-453): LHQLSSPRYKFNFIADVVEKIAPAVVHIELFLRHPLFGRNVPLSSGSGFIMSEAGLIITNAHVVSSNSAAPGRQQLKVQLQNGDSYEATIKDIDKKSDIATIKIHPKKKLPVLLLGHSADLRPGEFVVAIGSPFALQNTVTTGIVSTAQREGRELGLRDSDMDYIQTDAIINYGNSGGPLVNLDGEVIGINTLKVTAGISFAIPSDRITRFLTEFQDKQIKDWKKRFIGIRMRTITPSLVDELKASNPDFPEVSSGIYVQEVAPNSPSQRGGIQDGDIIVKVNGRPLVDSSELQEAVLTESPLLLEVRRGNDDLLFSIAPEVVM

B1: HTRA2^PD/PDZ (HTRA2 protease/PDZ domain, A134-E458) (domain or fragment, human, UniProt O43464 134-458, looked up)
chain: AVPSPPPASPRSQYNFIADVVEKTAPAVVYIEILDRHPFLGREVPISNGSGFVVAADGLIVTNAHVVADRRRVRVRLLSGDTYEAVVTAVDPVADIATLRIQTKEPLPTLPLGRSADVRQGEFVVAMGSPFALQNTITSGIVSSAQRPARDLGLPQTNVEYIQTDAAIDFGNSGGPLVNLDGEVIGVNTMKVTAGISFAIPSDRLREFLHRGEKKNSSSGISGSQRRYIGVMMLTLSPSILAELQLREPSFPDVQHGVLIHKVILGSPAHRAGLRPGDVILAIGEQMVQNAEDVYEAVRTQSQLAVQIRRGRETLTLYVTPEVTE
notes: human HTRA2 protease and PDZ domains, A134-E458; also called wildtype HTRA2; source: E. coli, purified (Ni-NTA, SEC); not shown: His6, N-terminal, kept
For B1, the “stoichiometry N” value in data set [1] was 3.

B2: Fab15H6.v4 (Fab, V domains shown)
VH: EVQLVQSGAEVKKPGASVKVSCKASGYKFTDSEMHWVRQAPGQGLEWIGGVDPETEGAAYNQKFKGRATITRDTSTSTAYLELSSLRSEDTAVYYCTRGYDYDYALDYWGQGTLVTVSS
VL: DIQMTQSPSSLSASVGDRVTITCRASSSVEFIHWYQQKPGKAPKPLISATSNLASGVPSRFSGSGSGTDFTLTISSLQPEDFATYYCQQWSSAPWTFGQGTKVEIK
notes: light chain of Fab15H6.v4; also called the Fab; source: expressed in Complete CRAP media with carbenicillin, purified (Protein G, SP Sepharose)
Take B2: the binding result is given as “no binding (tested: 3 μM Fab)” in data set [2]; “no binding (tested: 3 μM Fab)” in data set [4]; “no binding (tested: 3 μM)” in data set [5]; “no binding (tested: 3 μM)” in [7]; “no binding (tested: 3 μM)” in [8]. In addition, the Kd in data set [3] is 0.12 nM; in [6], 0.77 nM. For the same molecule, the “stoichiometry N” value in [9], in data set [10] and in data set [11] was 3 Fab per HTRA1 trimer each time.

B3: scFv15H6.v4 (single chain Fv version of Fab15H6.v4) (scFv, V domains shown)
VH: B2 VH
VL: B2 VL
notes: variable domain of the light chain of m1, D1-K106; (GGGGS)4 linker; variable domain of the heavy chain of m1, E1-S119
The molecule B3 had a Kd in data set [12] of 9.4 nM.

B4: Fab15H6.v4 D52A (Fab, V domains shown)
VH: B2 VH with D52A
VL: B2 VL
notes: as the heavy chain of m1, with D52A; as the light chain of m1
In the case of B4, in [12], the “fold affinity loss against Fab15H6.v4” value came to 2000 fold.

B5: Fab15H6.v4 Y100A (Fab, V domains shown)
VH: B2 VH with Y100A
VL: B2 VL
notes: as the heavy chain of m1, with Y100A; as the light chain of m1
As to B5, the “fold affinity loss against Fab15H6.v4” value in data set [12] was 200 fold.

B6: Fab15H6.v4 with all eight key paratope residues mutated to alanine (Fab, V domains shown)
VH: B2 VH with T30A, D31A, S32A, D52A, T91A, Y100A, D101A, Y102A
VL: B2 VL
notes: as the heavy chain of m1, with eight paratope residues of the three CDR loops changed to alanine; as the light chain of m1
On to B6, for which, in [12], the binding result is on record as “no binding (tested: 3 μM)”.

B7: HTRA1^PD-ΔLoopA (domain or fragment)
chain: not shown
notes: human HTRA1 protease domain, D161-K379, entire LoopA replaced with the beta hairpin motif NG; also called HTRA1-ΔLoopA; HTRA1^PD-ΔLoop mutant; source: E. coli, purified (Ni-NTA, SEC); not shown: His6, N-terminal, kept
Take B7: the “stoichiometry N” value in data set [1] was 3.
